The values that follow come from patent publication US20260258158A1 (Janssen / Centocor, published 2026).

The experiment has as its target T1, Biotinylated Human CD3 epsilon&CD3 delta Heterodimer Protein, His, Avitag&Tag Free (AcroBiosystems) (human, UniProt P07766 23-126; P04234 22-105).
T1 construct: also called cluster of differentiation 3 (CD3); soluble CD3 antigen
Nature of the experiment: BLI, biotinylated CD3 epsilon/delta on the tip, antibody as analyte (FIG. 24C).

T1 sequence (P07766 23-126, stated change not applied, chain 1 of 2): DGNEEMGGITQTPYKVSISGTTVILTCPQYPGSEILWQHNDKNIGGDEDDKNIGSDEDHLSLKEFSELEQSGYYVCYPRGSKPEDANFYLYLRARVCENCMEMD
T1 sequence (P04234 22-105, stated change not applied, chain 2 of 2): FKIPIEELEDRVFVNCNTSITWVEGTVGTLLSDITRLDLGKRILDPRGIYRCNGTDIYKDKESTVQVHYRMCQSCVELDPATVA
Text: In the BLI assay for CD3, due to nonspecific binding from the soluble CD3 antigen (Biotinylated Human CD3 epsilon&CD3 delta Heterodimer Protein, His, Avitag™&Tag Free from AcroBiosystems), the assay was reversed, i.e., immobilizing the antigen to the tip and using the bispecific antibodies as the analyte.

B1: HLPPB423 (bispecific antibody, human IgG1, kappa)
heavy 1: not shown
light 1: not shown
heavy 2: EVQLVESGGGLVQPGGSLRLSCAASGYSFTGYTMNWVRQAPGKGLEWVALINPYKGVSTYNQKFKDRFTISVDKSKNTAYLQMNSLRAEDTAVYYCARSGYYGDSDWYFDVWGQGTLVTVSSASTKGPSVFPLAPSSKSTSGGTAALGCLVKDYFPEPVTVSWNSGALTSGVHTFPAVLQSSGLYSLSSVVTVPSSSLGTQTYICNVNHKPSNTKVDKKVEPKSCDKTHTCPPCPAPELLGGPSVFLFPPKPKDTLMISRTPEVTCVVVDVSHEDPEVKFNWYVDGVEVHNAKTKPREEQYNSTYRVVSVLTVLHQDWLNGKEYKCKVSNKALPAPIEKTISKAKGQPREPQVYTLPPSREEMTKNQVSLSCAVKGFYPSDIAVEWESNGQPENNYKTTPPVLDSDGSFFLVSKLTVDKSRWQQGNVFSCSVMHEALHNRFTQKSLSLSPGK
light 2: not shown
As for B1, the binding result was “binds”.
